Data: FireProtDB (doi:10.1046/j.1432-1327.1999.00918.x)

Conditions: Homo sapiens; pH 2.7; Thermal; DSC; glycine 0.05 M; reversible: yes; whole UniProt chain shown

B1: Lysozyme C wild type, P61626 (protein)
chain: MKALIVLGLVLLSVTVQGKVFERCELARTLKRLGMDGYRGISLANWMCLAKWESGYNTRATNYNAGDRSTDYGIFQINSRYWCNDGKTPGAVNACHLSCSALLQDNIADAVACAKRVVRDPQGIRAWVAWRNRCQNRDVRQYVQGCGV
Tm: 64.9 °C
heat capacity change of unfolding: 1.55 kcal/mol/K
unfolding enthalpy (calorimetric): 114 kcal/mol
